Measured values as given in paper PMC11327152, “Fully-automated production of [^68Ga]Ga-Trivehexin for clinical application and its biodistribution in healthy volunteers” (Frontiers in Oncology, 2024).

Experiments:
[1] = Stability of [^68Ga]Ga-Trivehexin in formulation (PBS), radio-HPLC; format: physicochemical; conditions: Phosphate Buffer Saline, 2 h co-incubation of final product
Method: Radiochemical purity was evaluated by radio-HPLC and radio-TLC. For radio-HPLC, a mobile phase of H2O with 0.1% trifluoroacetic acid (TFA) (v/v, phase A) and acetonitrile with 0.1% TFA (v/v, phase B) was used with a flow rate of 1.0 mL/min and a linear elution gradient as follows: 0-5 min (0-95% A); 5-10 min (95-30% A);10-20 min (30-0% A). For radio-TLC, 0.4 M ammonium acetate solution/methanol (v/v, 1/1) (A) and 0.1 M citrate buffer (B) were used as mobile phases, respectively.
The stability of [^68Ga]Ga-Trivehexin in formulation and serum was further evaluated in Phosphate Buffer Saline (PBS) and Fetal Bovine Serum (FBS). After co-incubation of the final product with PBS or FBS for 60 or 120 min, radio-HPLC was used for the analysis.

clinical [2] = conditions: human, in vivo, iv, total radioactivity
Method: (§1) The clinical study was approved by Medical Ethics Committee, Zhongnan Hospital of Wuhan University and registered at ClinicalTrials.gov (NCT05835570). PET/CT imaging was performed using a Siemens-Biograph mCT PET/CT scanner (Siemens Healthineers, Erlangen, Germany). No special preparation was needed for [^68Ga]Ga-Trivehexin PET/CT. The injection dose was 87-122 MBq (70.7 MBq/mL, 90.9 MBq/nmol) and was determined on the basis of the patient’s weight (1.85 MBq/kg). PET/CT images were scanned from the top of the head to the upper thigh. PET data were obtained in a three-dimensional mode (matrix 200 × 200) of 6-8 bed positions (3 min/bed). Attenuation correction of PET images was performed using low-dose CT data. Image reconstruction was performed using the TrueX and time-of-flight (ultrahigh-definition PET) algorithms.
(§2) Applications of [^68Ga]Ga-Trivehexin in 3 healthy volunteers were done with written informed consent, and details of the volunteers were shown in Supplementary Table S2 . […] The PET scan was performed at 10 min, 35 min, and 60 min after intravenous injection, without repeated CT scans. Another PET/CT imaging sequence was obtained at 150 min post-injection, as the subject had to leave the scanner for voiding. Based on human PET data, the dosimetry values were calculated using OLINDA V2.2 to calculate organ doses and effective dose (as defined by International Commission on Radiological Protection publication 103) ([14]) using the International Commission on Radiological Protection publication 89 ([15]) adult human male and female models.

healthy volunteers [3] = assay: clinical; conditions: human, in vivo, iv
Method: as §1, §2

healthy volunteers [4] = test system: healthy volunteers; parameters: species or system human; conditions: in vivo
Method: as §2

clinical [5] = conditions: human, in vivo, iv, total radioactivity; remark: listed apart in the source

SMILES: CC(C)C[C@@H]1NC(=O)[C@H](CC(=O)O)NC(=O)CNC(=O)[C@H](CCCNC(=N)N)NC(=O)[C@H](Cc2ccc(O)cc2)NC(=O)[C@H](CCCCNC(=O)CCc2cn(CCCNC(=O)CCP(=O)(O)CN3CCN(CP(=O)(O)CCC(=O)NCCCn4cc(CCC(=O)NCCCC[C@H]5C(=O)N[C@@H](Cc6ccc(O)cc6)C(=O)N[C@@H](CCCNC(=N)N)C(=O)NCC(=O)N[C@@H](CC(=O)O)C(=O)N[C@@H](CC(C)C)C(=O)N[C@@H](C)C(=O)N[C@@H](Cc6ccc(O)cc6)C(=O)N6CCC[C@@H]6C(=O)N5C)nn4)CCN(CP(=O)(O)CCC(=O)NCCCn4cc(CCC(=O)NCCCC[C@H]5C(=O)N[C@@H](Cc6ccc(O)cc6)C(=O)N[C@@H](CCCNC(=N)N)C(=O)NCC(=O)N[C@@H](CC(=O)O)C(=O)N[C@@H](CC(C)C)C(=O)N[C@@H](C)C(=O)N[C@@H](Cc6ccc(O)cc6)C(=O)N6CCC[C@@H]6C(=O)N5C)nn4)CC3)nn2)N(C)C(=O)[C@H]2CCCN2C(=O)[C@H](Cc2ccc(O)cc2)NC(=O)[C@H](C)NC1=O [[^68Ga]Ga-Trivehexin, metal not drawn]
- intact tracer remained in PBS [1]: up to 98.9%
- SUV at 1 h (clinical [2]; SUVmean ± SD Colon): 1.07 ± 0.21 SUV
- SUV at 2.5 h (clinical [2]; SUVmean ± SD Fat tissue): 0.22 ± 0.1 SUV
- SUV at 2.5 h (clinical [2]; SUVmean ± SD Kidney): 21.3 ± 2 SUV
- SUV at 1 h (clinical [2]; SUVmean ± SD Liver): 0.82 ± 0.07 SUV
- SUV at 2.5 h (clinical [2]; SUVmean ± SD Lung): 0.45 ± 0.13 SUV
- SUV at 1 h (clinical [2]; SUVmean ± SD Muscle): 0.97 ± 0.1 SUV
- SUV at 2.5 h (clinical [2]; SUVmean ± SD Myocardium): 0.5 ± 0.09 SUV
- SUV at 2.5 h (clinical [2]; SUVmean ± SD Parotid gland): 0.97 ± 0.07 SUV
- SUV at 1 h (clinical [2]; SUVmean ± SD Spinal Canal(C5)): 0.85 ± 0.13 SUV
- SUV at 2.5 h (clinical [2]; SUVmean ± SD Spleen): 0.55 ± 0.07 SUV
- SUVmean ± SD Brain (healthy volunteers [3]): 0.01 ± 0.00
- Dose Adrenals (healthy volunteers [4]): 3.22E-02 mGy/MBq
- Dose Brain (healthy volunteers [4]): 1.40E-03 mGy/MBq
- Dose Esophagus (healthy volunteers [4]): 1.98E-02 mGy/MBq
- Dose Eyes (healthy volunteers [4]): 4.25E-03 mGy/MBq
- Dose Gallbladder Wall (healthy volunteers [4]): 2.09E-02 mGy/MBq
- Dose Heart Wall (healthy volunteers [4]): 1.73E-02 mGy/MBq
- Dose Kidneys (healthy volunteers [4]): 2.26E-01 mGy/MBq
- Dose Left colon (healthy volunteers [4]): 1.88E-02 mGy/MBq
- Dose Liver (healthy volunteers [4]): 1.58E-02 mGy/MBq
- Dose Lungs (healthy volunteers [4]): 8.72E-03 mGy/MBq
- Dose Osteogenic Cells (healthy volunteers [4]): 1.86E-02 mGy/MBq
- Dose Pancreas (healthy volunteers [4]): 1.96E-02 mGy/MBq
- Dose Prostate (healthy volunteers [4]): 1.77E-02 mGy/MBq
- Dose Rectum (healthy volunteers [4]): 1.96E-02 mGy/MBq
- Dose Red Marrow (healthy volunteers [4]): 1.16E-02 mGy/MBq
- Dose Right colon (healthy volunteers [4]): 1.86E-02 mGy/MBq
- Dose Salivary Glands (healthy volunteers [4]): 1.53E-02 mGy/MBq
- Dose Small Intestine (healthy volunteers [4]): 1.78E-02 mGy/MBq
- Dose Spleen (healthy volunteers [4]): 1.68E-02 mGy/MBq
- Dose Stomach Wall (healthy volunteers [4]): 1.77E-02 mGy/MBq
- Dose Testes (healthy volunteers [4]): 1.41E-02 mGy/MBq
- Dose Thymus (healthy volunteers [4]): 1.31E-02 mGy/MBq
- Dose Thyroid (healthy volunteers [4]): 1.96E-02 mGy/MBq
- Dose Total Body (healthy volunteers [4]): 1.26E-02 mGy/MBq
- Dose Urinary Bladder Wall (healthy volunteers [4]): 8.24E-02 mGy/MBq
- Effective Dose (healthy volunteers [4]): 1.67E-02 mGy/MBq
- effective dose in adrenals (healthy volunteers [4]): 3.22E-02 mSv/MBq
- effective dose in kidneys (healthy volunteers [4]): 2.26E-01 mSv/MBq
- effective dose in urinary bladder wall (healthy volunteers [4]): 8.24E-02 mSv/MBq
- total body effective dose (healthy volunteers [4]): 1.67E-02 mSv/MBq
- SUV at 0.25 h (clinical [5]; SUVmean ± SD Brain): 0.04 ± 0.01 SUV
- SUV at 0.5 h (clinical [5]; SUVmean ± SD Brain): 0.03 ± 0.01 SUV
- SUV at 0.25 h (clinical [5]; SUVmean ± SD Colon): 1.86 ± 0.31 SUV
- SUV at 0.5 h (clinical [5]; SUVmean ± SD Colon): 1.52 ± 0.36 SUV
- SUV at 2.5 h (clinical [5]; SUVmean ± SD Colon): 0.78 ± 0.16 SUV
- SUV at 0.25 h (clinical [5]; SUVmean ± SD Eyes): 0.36 ± 0.04 SUV
- SUV at 0.5 h (clinical [5]; SUVmean ± SD Eyes): 0.28 ± 0.14 SUV
- SUV at 1 h (clinical [5]; SUVmean ± SD Eyes): 0.71 ± 0.28 SUV
- SUV at 2.5 h (clinical [5]; SUVmean ± SD Eyes): 0.12 ± 0.03 SUV
- SUV at 0.25 h (clinical [5]; SUVmean ± SD Fat tissue): 0.26 ± 0.03 SUV
- SUV at 0.5 h (clinical [5]; SUVmean ± SD Fat tissue): 0.22 ± 0.03 SUV
- SUV at 1 h (clinical [5]; SUVmean ± SD Fat tissue): 0.26 ± 0.02 SUV
- SUV at 0.25 h (clinical [5]; SUVmean ± SD Kidney): 19.3 ± 1.13 SUV
- SUV at 0.5 h (clinical [5]; SUVmean ± SD Kidney): 21.5 ± 1.28 SUV
- SUV at 1 h (clinical [5]; SUVmean ± SD Kidney): 23.4 ± 2.38 SUV
- SUV at 0.25 h (clinical [5]; SUVmean ± SD Liver): 1.68 ± 0.26 SUV
- SUV at 0.5 h (clinical [5]; SUVmean ± SD Liver): 1.11 ± 0.23 SUV
- SUV at 2.5 h (clinical [5]; SUVmean ± SD Liver): 0.65 ± 0.1 SUV
- SUV at 0.25 h (clinical [5]; SUVmean ± SD Lung): 0.65 ± 0.03 SUV
- SUV at 0.5 h (clinical [5]; SUVmean ± SD Lung): 0.58 ± 0.14 SUV
- SUV at 1 h (clinical [5]; SUVmean ± SD Lung): 0.53 ± 0.05 SUV
- SUV at 0.25 h (clinical [5]; SUVmean ± SD Muscle): 1.04 ± 0.1 SUV
- SUV at 0.5 h (clinical [5]; SUVmean ± SD Muscle): 1.04 ± 0.01 SUV
- SUV at 2.5 h (clinical [5]; SUVmean ± SD Muscle): 0.68 ± 0.1 SUV
- SUV at 0.25 h (clinical [5]; SUVmean ± SD Myocardium): 1.69 ± 0.35 SUV
- SUV at 0.5 h (clinical [5]; SUVmean ± SD Myocardium): 0.83 ± 0.13 SUV
- SUV at 1 h (clinical [5]; SUVmean ± SD Myocardium): 0.52 ± 0.01 SUV
- SUV at 0.25 h (clinical [5]; SUVmean ± SD Oral mucosa): 2.6 ± 0.38 SUV
- SUV at 0.5 h (clinical [5]; SUVmean ± SD Oral mucosa): 2.28 ± 0.13 SUV
- SUV at 1 h (clinical [5]; SUVmean ± SD Oral mucosa): 2.12 ± 0.43 SUV
- SUV at 2.5 h (clinical [5]; SUVmean ± SD Oral mucosa): 1.59 ± 0.42 SUV
- SUV at 0.25 h (clinical [5]; SUVmean ± SD Pancreas): 2.46 ± 0.12 SUV
- SUV at 0.5 h (clinical [5]; SUVmean ± SD Pancreas): 1.47 ± 0.24 SUV
- SUV at 1 h (clinical [5]; SUVmean ± SD Pancreas): 1.01 ± 0.11 SUV
- SUV at 2.5 h (clinical [5]; SUVmean ± SD Pancreas): 1.13 ± 0.28 SUV
- SUV at 0.25 h (clinical [5]; SUVmean ± SD Parotid gland): 2.31 ± 0.09 SUV
- SUV at 0.5 h (clinical [5]; SUVmean ± SD Parotid gland): 1.19 ± 0.06 SUV
- SUV at 1 h (clinical [5]; SUVmean ± SD Parotid gland): 1.01 ± 0.1 SUV
- SUV at 0.25 h (clinical [5]; SUVmean ± SD Spinal Canal(C5)): 1.17 ± 0.15 SUV
- SUV at 0.5 h (clinical [5]; SUVmean ± SD Spinal Canal(C5)): 0.62 ± 0.12 SUV
- SUV at 2.5 h (clinical [5]; SUVmean ± SD Spinal Canal(C5)): 0.54 ± 0.15 SUV
- SUV at 0.25 h (clinical [5]; SUVmean ± SD Spleen): 1.95 ± 0.12 SUV
- SUV at 0.5 h (clinical [5]; SUVmean ± SD Spleen): 1.01 ± 0.06 SUV
- SUV at 1 h (clinical [5]; SUVmean ± SD Spleen): 0.76 ± 0.01 SUV
- SUV at 0.25 h (clinical [5]; SUVmean ± SD Thyroid gland): 3.41 ± 0.22 SUV
- SUV at 0.5 h (clinical [5]; SUVmean ± SD Thyroid gland): 1.54 ± 0.29 SUV
- SUV at 1 h (clinical [5]; SUVmean ± SD Thyroid gland): 1.37 ± 0.04 SUV
- SUV at 2.5 h (clinical [5]; SUVmean ± SD Thyroid gland): 1.01 ± 0.37 SUV
